T1: cyno Fc gamma RIIb extracellular domain, His-tagged (cynomolgus monkey)
T1 construct: also called cynoFcgRIIb
T1 chain: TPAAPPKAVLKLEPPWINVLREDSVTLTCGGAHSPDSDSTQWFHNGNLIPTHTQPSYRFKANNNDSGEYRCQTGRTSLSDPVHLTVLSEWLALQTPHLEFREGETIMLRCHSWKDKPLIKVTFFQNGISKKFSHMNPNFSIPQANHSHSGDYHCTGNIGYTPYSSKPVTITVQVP

T2: human Fc gamma RIIb extracellular domain, His-tagged (human, UniProt P31994 43-217)
T2 construct: also called FcgRIIb
T2 sequence: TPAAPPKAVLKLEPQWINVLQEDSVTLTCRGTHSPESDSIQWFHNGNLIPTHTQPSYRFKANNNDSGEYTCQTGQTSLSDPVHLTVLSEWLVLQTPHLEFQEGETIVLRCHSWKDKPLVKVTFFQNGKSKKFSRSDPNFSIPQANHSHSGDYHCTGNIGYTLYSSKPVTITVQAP


Experiments:
[1] = target: T1, cyno Fc gamma RIIb extracellular …; test: SPR 25C
[2] = target: T2, human Fc gamma RIIb extracellular …; test: SPR 25C

Binder	binding result [1]	binding result [2]	KD fold vs SG1 [2]
M103205H795-SG1 K334Y/M103202L889-SK1 (antibody, human IgG1, kappa, copies: 2 + 2) heavy: not shown light: DIVMTQSPATLSLSPGERATLSCTSSQSVYHANWLSWFQQKPGQPPKLLIYWASTLAYGVPSRFSGSGSGTDFTLTISSLQPEDAATYYCAGGYGGGRYAFGQGTKVEIKRTVAAPSVFIFPPSDEQLKSGTASVVCLLNNFYPREAKVQWKVDNALQSGNSQESVTEQDSKDSTYSLSSTLTLSKADYEKHKVYACEVTHQGLSSPVTKSFNRGEC	binds	binds	
M103205H795-SG1 L235W/M103202L889-SK1 (antibody, human IgG1, kappa, copies: 2 + 2) heavy: not shown light: DIVMTQSPATLSLSPGERATLSCTSSQSVYHANWLSWFQQKPGQPPKLLIYWASTLAYGVPSRFSGSGSGTDFTLTISSLQPEDAATYYCAGGYGGGRYAFGQGTKVEIKRTVAAPSVFIFPPSDEQLKSGTASVVCLLNNFYPREAKVQWKVDNALQSGNSQESVTEQDSKDSTYSLSSTLTLSKADYEKHKVYACEVTHQGLSSPVTKSFNRGEC	binds	binds	
M103205H795-SG1 K326T/M103202L889-SK1 (antibody, human IgG1, kappa, copies: 2 + 2) heavy: not shown light: DIVMTQSPATLSLSPGERATLSCTSSQSVYHANWLSWFQQKPGQPPKLLIYWASTLAYGVPSRFSGSGSGTDFTLTISSLQPEDAATYYCAGGYGGGRYAFGQGTKVEIKRTVAAPSVFIFPPSDEQLKSGTASVVCLLNNFYPREAKVQWKVDNALQSGNSQESVTEQDSKDSTYSLSSTLTLSKADYEKHKVYACEVTHQGLSSPVTKSFNRGEC	binds	binds	
M103205H795-SG1 P331E/M103202L889-SK1 (antibody, human IgG1, kappa, copies: 2 + 2) heavy: not shown light: DIVMTQSPATLSLSPGERATLSCTSSQSVYHANWLSWFQQKPGQPPKLLIYWASTLAYGVPSRFSGSGSGTDFTLTISSLQPEDAATYYCAGGYGGGRYAFGQGTKVEIKRTVAAPSVFIFPPSDEQLKSGTASVVCLLNNFYPREAKVQWKVDNALQSGNSQESVTEQDSKDSTYSLSSTLTLSKADYEKHKVYACEVTHQGLSSPVTKSFNRGEC	binds	binds	
M103205H795-SG1 E233D/M103202L889-SK1 (antibody, human IgG1, kappa, copies: 2 + 2) heavy: not shown light: DIVMTQSPATLSLSPGERATLSCTSSQSVYHANWLSWFQQKPGQPPKLLIYWASTLAYGVPSRFSGSGSGTDFTLTISSLQPEDAATYYCAGGYGGGRYAFGQGTKVEIKRTVAAPSVFIFPPSDEQLKSGTASVVCLLNNFYPREAKVQWKVDNALQSGNSQESVTEQDSKDSTYSLSSTLTLSKADYEKHKVYACEVTHQGLSSPVTKSFNRGEC	binds	binds	
MS103205H795-MY351/M103202L889-SK1 (antibody, also called MS1032LO06-MY351; copies: 2 + 2) heavy: QVTLKESGPVLVKPTETLTLTCTVSGIDLSHDDISWVRQAPGKGLEWVGIISYAGSTYYASWAKGRLTISKDTSKNQVVLTMTNMDPVDTATYYCARGVPAYSHGGDLWGQGTLVTVSSASTKGPSVFPLAPSSKSTSGGTAALGCLVKDYFPEPVTVSWNSGALTSGVHTFPAVLQSSGLYSLSSVVTVPSSSLGTQTYICNVNHKPSNTKVDKKVEPKSCDKTHTCPPCPAPELLNGPSVFLFPPKPKDTLMISRTPEVTCVVVDVSDEDPEVKFNWYVDGVEVHNAKTKPREEQYNSTYRVVSVLTVLHRDWLNGKEYKCKVSNKALPKPIEKTISKAKGQPREPQVYTLPPSREEMTKNQVSLTCLVKGFYPSDIAVEWESNGQPENNYKTTPPVLDSDGSFFLYSKLTVKKSRWQQGNVFSCSVMHEALHNHYTQKSLSLSP light: DIVMTQSPATLSLSPGERATLSCTSSQSVYHANWLSWFQQKPGQPPKLLIYWASTLAYGVPSRFSGSGSGTDFTLTISSLQPEDAATYYCAGGYGGGRYAFGQGTKVEIKRTVAAPSVFIFPPSDEQLKSGTASVVCLLNNFYPREAKVQWKVDNALQSGNSQESVTEQDSKDSTYSLSSTLTLSKADYEKHKVYACEVTHQGLSSPVTKSFNRGEC			5 fold
MS103205H795-PK2/M103202L889-SK1 (antibody, also called MS1032LO06-PK2; copies: 2 + 2) heavy: QVTLKESGPVLVKPTETLTLTCTVSGIDLSHDDISWVRQAPGKGLEWVGIISYAGSTYYASWAKGRLTISKDTSKNQVVLTMTNMDPVDTATYYCARGVPAYSHGGDLWGQGTLVTVSSASTKGPSVFPLAPSSKSTSGGTAALGCLVKDYFPEPVTVSWNSGALTSGVHTFPAVLQSSGLYSLSSVVTVPSSSLGTQTYICNVNHKPSNTKVDKKVEPKSCDKTHTCPPCPAPELLNGPSVFLFPPKPKDTLMISRTPEVTCVVVDVSEEDPEVKFNWYVDGVEVHNAKTKPREEQYNSTYRVVSVLTVLHQDWLNGKEYKCKVSNKALPKPIEKTISKAKGQPREPQVYTLPPSREEMTKNQVSLTCLVKGFYPSDIAVEWESNGQPENNYKTTPMVLDRDGSFFLYSKLTVKKSRWQQGNVFSCSVMHEALHNHYTQKSLSLSP light: DIVMTQSPATLSLSPGERATLSCTSSQSVYHANWLSWFQQKPGQPPKLLIYWASTLAYGVPSRFSGSGSGTDFTLTISSLQPEDAATYYCAGGYGGGRYAFGQGTKVEIKRTVAAPSVFIFPPSDEQLKSGTASVVCLLNNFYPREAKVQWKVDNALQSGNSQESVTEQDSKDSTYSLSSTLTLSKADYEKHKVYACEVTHQGLSSPVTKSFNRGEC			8 fold

More lines, now with the values ahead:

binding result [1]	binding result [2]	KD fold vs SG1 [2]	Binder
binds	binds		M103205H795-SG1 Q295L/M103202L889-SK1 (antibody, human IgG1, kappa, copies: 2 + 2) heavy: not shown light: DIVMTQSPATLSLSPGERATLSCTSSQSVYHANWLSWFQQKPGQPPKLLIYWASTLAYGVPSRFSGSGSGTDFTLTISSLQPEDAATYYCAGGYGGGRYAFGQGTKVEIKRTVAAPSVFIFPPSDEQLKSGTASVVCLLNNFYPREAKVQWKVDNALQSGNSQESVTEQDSKDSTYSLSSTLTLSKADYEKHKVYACEVTHQGLSSPVTKSFNRGEC
binds	binds		M103205H795-SG1 P396M/M103202L889-SK1 (antibody, human IgG1, kappa, copies: 2 + 2) heavy: not shown light: DIVMTQSPATLSLSPGERATLSCTSSQSVYHANWLSWFQQKPGQPPKLLIYWASTLAYGVPSRFSGSGSGTDFTLTISSLQPEDAATYYCAGGYGGGRYAFGQGTKVEIKRTVAAPSVFIFPPSDEQLKSGTASVVCLLNNFYPREAKVQWKVDNALQSGNSQESVTEQDSKDSTYSLSSTLTLSKADYEKHKVYACEVTHQGLSSPVTKSFNRGEC
binds	binds		M103205H795-SG1 G236A/M103202L889-SK1 (antibody, human IgG1, kappa, copies: 2 + 2) heavy: not shown light: DIVMTQSPATLSLSPGERATLSCTSSQSVYHANWLSWFQQKPGQPPKLLIYWASTLAYGVPSRFSGSGSGTDFTLTISSLQPEDAATYYCAGGYGGGRYAFGQGTKVEIKRTVAAPSVFIFPPSDEQLKSGTASVVCLLNNFYPREAKVQWKVDNALQSGNSQESVTEQDSKDSTYSLSSTLTLSKADYEKHKVYACEVTHQGLSSPVTKSFNRGEC
binds	binds		M103205H795-SG1 L234W/M103202L889-SK1 (antibody, human IgG1, kappa, copies: 2 + 2) heavy: not shown light: DIVMTQSPATLSLSPGERATLSCTSSQSVYHANWLSWFQQKPGQPPKLLIYWASTLAYGVPSRFSGSGSGTDFTLTISSLQPEDAATYYCAGGYGGGRYAFGQGTKVEIKRTVAAPSVFIFPPSDEQLKSGTASVVCLLNNFYPREAKVQWKVDNALQSGNSQESVTEQDSKDSTYSLSSTLTLSKADYEKHKVYACEVTHQGLSSPVTKSFNRGEC
binds	binds		M103205H795-SG1 K334V/M103202L889-SK1 (antibody, human IgG1, kappa, copies: 2 + 2) heavy: not shown light: DIVMTQSPATLSLSPGERATLSCTSSQSVYHANWLSWFQQKPGQPPKLLIYWASTLAYGVPSRFSGSGSGTDFTLTISSLQPEDAATYYCAGGYGGGRYAFGQGTKVEIKRTVAAPSVFIFPPSDEQLKSGTASVVCLLNNFYPREAKVQWKVDNALQSGNSQESVTEQDSKDSTYSLSSTLTLSKADYEKHKVYACEVTHQGLSSPVTKSFNRGEC
binds	binds		M103205H795-SG1 H268E/M103202L889-SK1 (antibody, human IgG1, kappa, copies: 2 + 2) heavy: not shown light: DIVMTQSPATLSLSPGERATLSCTSSQSVYHANWLSWFQQKPGQPPKLLIYWASTLAYGVPSRFSGSGSGTDFTLTISSLQPEDAATYYCAGGYGGGRYAFGQGTKVEIKRTVAAPSVFIFPPSDEQLKSGTASVVCLLNNFYPREAKVQWKVDNALQSGNSQESVTEQDSKDSTYSLSSTLTLSKADYEKHKVYACEVTHQGLSSPVTKSFNRGEC
binds	binds		M103205H795-SG1 K334I/M103202L889-SK1 (antibody, human IgG1, kappa, copies: 2 + 2) heavy: not shown light: DIVMTQSPATLSLSPGERATLSCTSSQSVYHANWLSWFQQKPGQPPKLLIYWASTLAYGVPSRFSGSGSGTDFTLTISSLQPEDAATYYCAGGYGGGRYAFGQGTKVEIKRTVAAPSVFIFPPSDEQLKSGTASVVCLLNNFYPREAKVQWKVDNALQSGNSQESVTEQDSKDSTYSLSSTLTLSKADYEKHKVYACEVTHQGLSSPVTKSFNRGEC
binds	binds		M103205H795-SG1 I332D/M103202L889-SK1 (antibody, human IgG1, kappa, copies: 2 + 2) heavy: not shown light: DIVMTQSPATLSLSPGERATLSCTSSQSVYHANWLSWFQQKPGQPPKLLIYWASTLAYGVPSRFSGSGSGTDFTLTISSLQPEDAATYYCAGGYGGGRYAFGQGTKVEIKRTVAAPSVFIFPPSDEQLKSGTASVVCLLNNFYPREAKVQWKVDNALQSGNSQESVTEQDSKDSTYSLSSTLTLSKADYEKHKVYACEVTHQGLSSPVTKSFNRGEC
binds	binds		M103205H795-SG1 K334M/M103202L889-SK1 (antibody, human IgG1, kappa, copies: 2 + 2) heavy: not shown light: DIVMTQSPATLSLSPGERATLSCTSSQSVYHANWLSWFQQKPGQPPKLLIYWASTLAYGVPSRFSGSGSGTDFTLTISSLQPEDAATYYCAGGYGGGRYAFGQGTKVEIKRTVAAPSVFIFPPSDEQLKSGTASVVCLLNNFYPREAKVQWKVDNALQSGNSQESVTEQDSKDSTYSLSSTLTLSKADYEKHKVYACEVTHQGLSSPVTKSFNRGEC
binds	binds		M103205H795-SG1 P271G/M103202L889-SK1 (antibody, human IgG1, kappa, copies: 2 + 2) heavy: not shown light: DIVMTQSPATLSLSPGERATLSCTSSQSVYHANWLSWFQQKPGQPPKLLIYWASTLAYGVPSRFSGSGSGTDFTLTISSLQPEDAATYYCAGGYGGGRYAFGQGTKVEIKRTVAAPSVFIFPPSDEQLKSGTASVVCLLNNFYPREAKVQWKVDNALQSGNSQESVTEQDSKDSTYSLSSTLTLSKADYEKHKVYACEVTHQGLSSPVTKSFNRGEC

From patent EP4755449A2 (CHUGAI SEIYAKU KABUSHIKI KAISHA, dated 2026)
